We go through 4 molecules from US20240067748A1 (NONA BIOSCIENCES SUZHOU, published 2024).

Test [1] concerns the target T1, human TROP2 protein (Sino Biological, #10428-H08H) (human, UniProt P09758 27-274).
T1 construct: bought protein; also called human Trop2 protein antigen (His tag); not shown: His tag
T1 sequence (looked up): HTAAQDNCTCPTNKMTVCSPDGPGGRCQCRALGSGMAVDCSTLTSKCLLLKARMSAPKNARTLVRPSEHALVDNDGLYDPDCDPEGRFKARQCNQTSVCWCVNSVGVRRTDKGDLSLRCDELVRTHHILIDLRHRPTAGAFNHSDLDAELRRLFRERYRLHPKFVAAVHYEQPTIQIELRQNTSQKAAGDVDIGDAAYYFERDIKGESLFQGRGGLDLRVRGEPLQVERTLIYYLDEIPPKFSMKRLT
Nature of the test: BLI, Octet RED96, AHC sensor. On the procedure:
(§1) Specifically, a human TROP2 protein (Sino Biological, #10428-H08H) or a monkey Trop2 protein (Sino Biological, #90893-C08H) was diluted to 200 nM with a PBS buffer (pH 7.4) containing 0.1% (w/w) BSA and 0.02% (v/v) tween 20, and incubated with the AHC sensor respectively. 40 nM Trop2 antibody was incubated at 30° C. for 3 min with the AHC sensor loaded with the human Trop2 protein or monkey Trop2 protein respectively. The reaction mixture was incubated at 30° C. for another 5 min in a PBS buffer (pH 7.4) containing 0.1% (v/w) BSA and 0.02% (v/v) Tween 20. The association and dissociation signals between the Trop2 antibody and the human Trop2 protein or monkey Trop2 protein were recorded by Octet Red 96 in real time. The affinity and the association and dissociation constants were determined by Octet using software.

The target in test [2] is T2, monkey Trop2 protein (Sino Biological, #90893-C08H) (monkey, UniProt A0A2K5UE71 27-274).
T2 construct: bought protein; also called monkey Trop2 protein antigen (His tag)
T2 sequence: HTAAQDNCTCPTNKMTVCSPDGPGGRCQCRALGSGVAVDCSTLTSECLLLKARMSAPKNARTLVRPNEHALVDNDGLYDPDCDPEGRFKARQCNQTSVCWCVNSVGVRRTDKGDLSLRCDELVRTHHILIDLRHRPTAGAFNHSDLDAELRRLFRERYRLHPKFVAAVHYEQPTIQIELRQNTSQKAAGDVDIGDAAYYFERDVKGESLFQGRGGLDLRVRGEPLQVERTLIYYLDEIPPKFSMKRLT
Briefly: BLI, Octet RED96, AHC sensor. On the procedure:
as §1

For the next test, the target named is T3, human Trop2 on cells (human, UniProt P09758 27-323).
T3 construct: whole, on cells; also called hTrop2; 293T-human Trop2 cells
T3 sequence (looked up): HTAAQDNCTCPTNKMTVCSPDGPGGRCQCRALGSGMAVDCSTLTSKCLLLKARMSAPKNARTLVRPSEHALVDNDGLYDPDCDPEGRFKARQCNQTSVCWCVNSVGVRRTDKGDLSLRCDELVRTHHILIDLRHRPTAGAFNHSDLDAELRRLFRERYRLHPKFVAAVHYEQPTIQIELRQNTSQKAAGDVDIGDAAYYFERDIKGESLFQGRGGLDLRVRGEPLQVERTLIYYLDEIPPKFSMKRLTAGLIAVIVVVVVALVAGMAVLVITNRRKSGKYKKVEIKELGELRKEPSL
Nature of the test: flow cytometry on 293T-human Trop2 cells. As for the experimental part: The cell density was determined, and the cells were resuspended to 1×10⁶ cells/mL in PBS. 100 μL of cell suspension was taken from each well and added to a 96 well V-bottom plate. The 96-well V-bottom plate was centrifuged at 1000 rpm for 5 min and washed once with PBS+0.5% BSA (VWR, #0332-100G). […] After 1 h, the cells were washed twice with PBS+0.5% BSA. The cells were incubated with 100 μL of Alexa Fluor 488 goat anti-human IgG (Life technologies, 1:1000, #A-11013) at 4° C. for 1 h in the dark, and washed twice with PBS+0.5% BSA. The cells were resuspended in 200 μL of PBS+0.5% BSA. The fluorescence intensity of the cells was analyzed using a FACS verse flow cytometer. All procedures were performed on ice.

B1: PR001159 (antibody, human IgG1, kappa, V domains shown)
VH: QVQLVESGGGVVQPGRSLRLSCEASGFTFSHYGMHWVRQAPGKGLEWVAVIWYDGIKTNYVESVKGRFTISRDNSKNTLNLQMNRLRAEDTAVYYCARDGGFGESNYYGLDVWGQGTTVTVSS
VL: DIQLTQSPSFLSASVGDRVTITCRASQGISSYLGWYQQKPGKAPKLLIYIASTLQSGVPSRFSGSGSGTEFTLTISSLQPEDFATYYCQQLNSYPYTFGQGTKLEIKR
notes: fully human IgG1/kappa; also called antibody No. (21)
As for B1, in test [1], the Kd is less than 0.001 nM, the Response is 0.38, the “fold lower KD than the reference antibody Tab (hRS7)” value was approximately 10 fold and the off-rate constant (koff) is less than 1e-07 s⁻¹. In addition, the on-rate constant (kon) in test [1] is 176000 M⁻¹ s⁻¹. In test [2], this molecule had a Kd of 0.307 nM, a Response of 0.372, a koff of 3.39e-05 s⁻¹ and a kon of 111000 M⁻¹ s⁻¹. In the test with human Trop2 on cells, the concentration giving a half-maximal response (EC50) was 0.977 nM, the “Maximum (MFI)” value stood at 6790 MFI and the Top % turned out to be 105%.

B2: PR001170 (antibody, human IgG1, kappa, V domains shown)
VH: QVQLQESGPGLVKPSETLSLTCAVSGYSINSGYFWAWIRQPPGMGLEWIGSIYHSGRTHYNPSLKSRVIISLDTSKNQFSLKLRSVTAADSAVYYCAREGYASGSYYWGQGTLVTVSS
VL: EIVMTQSPATLSVSPGERATLSCRSSQSVNSYLAWFQQKPGQAPRLLIYDSSTRATGIPARFSGSGSGTEFTLTISSLQSEDFAFYFCQQYENWPLTFGGGTKVEIKR
notes: fully human IgG1/kappa; also called antibody No. (29)
In test [1], B2 gave a Kd of less than 0.001 nM, a Response of 0.368, a dissociation rate constant (koff) of less than 1e-07 s⁻¹ and an on-rate (kon) of 476000 M⁻¹ s⁻¹. For the same molecule, in test [2], the dissociation constant Kd was less than 0.001 nM, the Response was determined as 0.387, the koff was less than 1e-07 s⁻¹ and the kon turned out to be 307000 M⁻¹ s⁻¹. Moreover, in the test with human Trop2 on cells, it took 0.352 nM to reach a half-maximal effect (EC50), the “Maximum (MFI)” value is 6960 MFI and the Top % is 107%.

B3: PR001132 (antibody, human IgG1, kappa, V domains shown)
VH: QVELVESGGGVVQPGRSLRLSCGASGFTFSSYNMYWVRQAPGKGLEWVAGIWDDGNNKYYANSVKGRFTISRDNSKNTLYLQMNSLRTEDTALYYCAKDGWGSYGEYFQHWGQGTLVTVSS
VL: DIQMTQSPSSLSASVGERVTITCRASQNINSYLSWYQQKPGKAPKLLIYAASSLQNGVPSRFSGSGSGTDFTLTISSLQPEDFATYYCQQSFSTPPITFGQGTRLEIKR
notes: fully human IgG1/kappa; also called antibody No. (4)
Consider B3, for which, in test [1], the equilibrium dissociation constant (Kd) is less than 0.001 nM, the Response was determined as 0.417, the “fold lower KD than the reference antibody Tab (hRS7)” value was approximately 10 fold and the dissociation rate constant (koff) was less than 1e-07 s⁻¹. Further, the kon in test [1] turned out to be 121000 M⁻¹ s⁻¹. Further, in test [2], the affinity, expressed as Kd, was 0.164 nM; the Response was 0.418; the koff turned out to be 1.43e-05 s⁻¹; the kon is 86900 M⁻¹ s⁻¹. Besides, in the test with human Trop2 on cells, a half-maximal response (EC50) required 0.441 nM, the “Maximum (MFI)” value is 6920 MFI and the Top % worked out at 107%.

B4: PR001138 (antibody, human IgG1, kappa, V domains shown)
VH: QVQLQESGPRLVKPSETLSLTCAVSGYSISSGYYWGWIRQSPGMGLEWIAYIYHDGSTYCNPSLKSRVTMSVDTSKNQFSLKLRSVTAADTAVYYCARDGAAAPFDYWGQGTLVTVSS
VL: DIQMTQSPSTLSASVGDRVTITCRASQSISNWLAWYQQKPGKAPKVLIYKASSLESGVPSRFSGSGSGTEFTLTINSLQPDDFATYYCQQYDSYSITFGQGTRLEIKR
notes: fully human IgG1/kappa; also called antibody No. (7)
On to B4, for which, in test [1], the Kd is less than 0.001 nM, the Response turned out to be 0.338, the “fold lower KD than the reference antibody Tab (hRS7)” value was approximately 10 fold and the koff was less than 1e-07 s⁻¹. Moreover, the on-rate (kon) in test [1] is 148000 M⁻¹ s⁻¹. Besides, in test [2], the dissociation constant Kd stood at 0.409 nM, the Response was found to be 0.329, the off-rate (koff) was 3.98e-05 s⁻¹ and the kon was determined as 97400 M⁻¹ s⁻¹. Besides, in the test with human Trop2 on cells, the EC50 turned out to be 0.478 nM, the “Maximum (MFI)” value was 6730 MFI and the Top % turned out to be 104%.
